The text below walks through data of paper PMC6179994.

The target of this experiment is full-length rabbit TRPV5 (transient receptor potential vanilloid 5) (rabbit) (UniProt Q9XSM3). The experiment in a line: cryo-EM structure; detergent solubilized TRPV5 (DMNG) incubated 1 h with 10 mM CaCl2 and rat CaM at 1:20 (TRPV5 tetramer:CaM), then SEC; map at 4.4 Å without applied symmetry.
Chain of full-length rabbit TRPV5 (transient receptor potential vanilloid 5) (rabbit) (Q9XSM3 whole entry): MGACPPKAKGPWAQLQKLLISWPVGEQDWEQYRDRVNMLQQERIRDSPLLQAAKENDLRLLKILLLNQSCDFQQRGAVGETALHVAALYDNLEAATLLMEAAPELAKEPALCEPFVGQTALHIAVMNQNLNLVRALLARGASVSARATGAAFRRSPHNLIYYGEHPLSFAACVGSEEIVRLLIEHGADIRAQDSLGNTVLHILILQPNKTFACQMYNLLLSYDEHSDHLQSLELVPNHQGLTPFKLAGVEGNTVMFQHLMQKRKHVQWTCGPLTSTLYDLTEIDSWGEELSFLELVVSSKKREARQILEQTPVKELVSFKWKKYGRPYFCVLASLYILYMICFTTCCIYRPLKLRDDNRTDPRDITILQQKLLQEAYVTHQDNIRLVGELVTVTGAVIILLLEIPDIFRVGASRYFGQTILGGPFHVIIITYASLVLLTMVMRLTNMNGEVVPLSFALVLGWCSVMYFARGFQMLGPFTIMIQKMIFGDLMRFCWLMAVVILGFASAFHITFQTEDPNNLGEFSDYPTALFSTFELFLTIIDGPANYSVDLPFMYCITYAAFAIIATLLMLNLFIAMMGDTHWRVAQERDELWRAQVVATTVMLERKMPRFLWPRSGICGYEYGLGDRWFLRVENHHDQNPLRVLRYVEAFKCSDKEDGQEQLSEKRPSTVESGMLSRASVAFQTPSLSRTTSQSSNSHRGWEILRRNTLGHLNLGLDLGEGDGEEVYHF

Substance “rat calmodulin (CaM), calcium-activated (from UniProt P0DP29 1-149) (natural protein)” displayed a stoichiometry N (CaM per TRPV5 tetramer) of 1.
